# Measured values from the Human Domainome abundance scans (Beltran et al. 2025).
# ± gives the uncertainty stated by the source.
# B1: Zinc finger homeobox protein 3, residues 2147 to 2202; numbered along this chain, Q15911 (parent)
# chain: RPRTRITDDQLRVLRQYFDINNSPSEEQIKEMADKSGLPQKVIKHWFRNTLFKERQ
# Variants of: B1
# Experiment: abundance fitness (aPCA) (normalised: wild type 0, dead -1); higher = more abundant; growth selection in yeast, the domain comes from the species named
# Settings: Homo sapiens
row,Variant,abundance fitness
1,RPRTRITDDQLRVLRQYFDINNSPSEEQIKFMADKSGLPQKVIKHWFRNTLFKERQ [E31F],-0.375 ± 0.14
2,RPRTRITDDQLRVLRQYFDINNSPSEEQIKEMADKSGLPQKVIKHWFRNTMFKERQ [L51M],0.047 ± 0.12
3,RPRTRITDDQLRVLRQYFDINNSPSEEQIKEMADKSGLPQKVIKHWFRNTYFKERQ [L51Y],-0.007 ± 0.21
4,RPRTRIRDDQLRVLRQYFDINNSPSEEQIKEMADKSGLPQKVIKHWFRNTLFKERQ [T7R],-0.174 ± 0.067
5,RPRTRITDDQLRVLRQYFDINNSPSEEQIKEMADKSGLEQKVIKHWFRNTLFKERQ [P39E],0.009 ± 0.082
6,RPRTRITDDQLRVLRQYFDINNSPSEEQIKEMADKSGLPQKVIKHWFRNTGFKERQ [L51G],-0.073 ± 0.07
7,RPRTRITDDQLRVLFQYFDINNSPSEEQIKEMADKSGLPQKVIKHWFRNTLFKERQ [R15F],-0.152 ± 0.13
8,RPRTRITDDQLRVLRQYFDINNSPSEEQIKEMADKSGLPQKVIKHWFRNTLRKERQ [F52R],0.148 ± 0.075
9,RPRTRITDDQLRVLRQYFDINNSPSEEQIKEMADKSGLPQSVIKHWFRNTLFKERQ [K41S],-0.02 ± 0.11
10,RPRTTITDDQLRVLRQYFDINNSPSEEQIKEMADKSGLPQKVIKHWFRNTLFKERQ [R5T],0.137 ± 0.068
11,RPRTRITDDQLRVLRQYFDINNSPSEEQIKEMADKSGLPQKVIKHWFRNTWFKERQ [L51W],-0.34 ± 0.086
12,RPRTRITDDQLRVLRQYFDINNSPSEEQIKEMADKSGSPQKVIKHWFRNTLFKERQ [L38S],-0.712 ± 0.095
13,RPRTRITDDQLRVLRQYFDINNSPSEEQIKEMADKSGLPQVVIKHWFRNTLFKERQ [K41V],-0.108 ± 0.091
14,RPRTRITDDQLRVLRQYFDINNSPSEEQIKEAADKSGLPQKVIKHWFRNTLFKERQ [M32A],-0.338 ± 0.097
15,RPRTRITDDQLRVLRMYFDINNSPSEEQIKEMADKSGLPQKVIKHWFRNTLFKERQ [Q16M],-0.01 ± 0.086
16,RPRTRLTDDQLRVLRQYFDINNSPSEEQIKEMADKSGLPQKVIKHWFRNTLFKERQ [I6L],0.179 ± 0.076
17,RPRTRITDDQLRVLRQYFDINNSPSEEQIKEMADKSGLPQKVVKHWFRNTLFKERQ [I43V],-0.015 ± 0.09
18,RPRTRITDDQLRVLRQYFDILNSPSEEQIKEMADKSGLPQKVIKHWFRNTLFKERQ [N21L],-0.256 ± 0.079
19,RPRTRITDDYLRVLRQYFDINNSPSEEQIKEMADKSGLPQKVIKHWFRNTLFKERQ [Q10Y],-0.626 ± 0.11
20,RPRTRITDDQLRVLRQYFDINNSPSEVQIKEMADKSGLPQKVIKHWFRNTLFKERQ [E27V],0.013 ± 0.074
21,RPRTRITDDQLRVLAQYFDINNSPSEEQIKEMADKSGLPQKVIKHWFRNTLFKERQ [R15A],-0.23 ± 0.073
22,RPRTRITDDQLRVLRQYFDINNSPSEEQIKEMADKSGLPQKVIKHWFRNTLVKERQ [F52V],0.05 ± 0.079
23,RPRTRITDDQLRVGRQYFDINNSPSEEQIKEMADKSGLPQKVIKHWFRNTLFKERQ [L14G],-0.876 ± 0.076
24,RSRTRITDDQLRVLRQYFDINNSPSEEQIKEMADKSGLPQKVIKHWFRNTLFKERQ [P2S],0.102 ± 0.092

row,Variant,abundance fitness
1,RPRTRITDDQLYVLRQYFDINNSPSEEQIKEMADKSGLPQKVIKHWFRNTLFKERQ [R12Y],-0.4 ± 0.11
2,RPRTRITDDQLRVLRQYFDINNSPSEEQIKEMQDKSGLPQKVIKHWFRNTLFKERQ [A33Q],-0.185 ± 0.22
3,RPRTRITDDQLRVLRQYFDINNSPSEEQIKEMADKSGKPQKVIKHWFRNTLFKERQ [L38K],-1.04 ± 0.15
4,RPRTRITDDQLRVLRAYFDINNSPSEEQIKEMADKSGLPQKVIKHWFRNTLFKERQ [Q16A],-0.065 ± 0.076
5,RPRTRITDDQLRVLRQYFDINNSPSEEQIKWMADKSGLPQKVIKHWFRNTLFKERQ [E31W],-0.404 ± 0.11
6,RPRTRITDDQLRVLRQYFDINNSPSEEQIKEMADKSILPQKVIKHWFRNTLFKERQ [G37I],-0.762 ± 0.26
7,RPRTRITDDQLRVLRQYFDINNSPSEEQIMEMADKSGLPQKVIKHWFRNTLFKERQ [K30M],-0.107 ± 0.11
8,RPRTRITDDQLRVLRQYFDINNFPSEEQIKEMADKSGLPQKVIKHWFRNTLFKERQ [S23F],-0.025 ± 0.15
9,RPRTRITDDQLRVLRHYFDINNSPSEEQIKEMADKSGLPQKVIKHWFRNTLFKERQ [Q16H],-0.101 ± 0.16
10,RPRTRITDDQLRVLRQYFDINNSPSEEQIKEMADKSGLPQKVIKHWMRNTLFKERQ [F47M],-0.242 ± 0.17
11,RPRTRITDDQLRVLRQYFDINNSPSEEQIKEMADKSGLPQKVIKHWFRNTLFYERQ [K53Y],0.141 ± 0.25
12,RPRTRITDDQLRVLRQYFDINNSPSEEQIKEMADPSGLPQKVIKHWFRNTLFKERQ [K35P],-0.998 ± 0.14
13,RPRTRITDDQLRVLRQYFDINNSPSEKQIKEMADKSGLPQKVIKHWFRNTLFKERQ [E27K],0.124 ± 0.11
14,RPRTRITDDQLRVLRQYFDINNSPSEEQIKEMADKSGLPSKVIKHWFRNTLFKERQ [Q40S],0.014 ± 0.091
15,RPRTRITDDQLRVLRQYFDINNSPSEEQIKEMADKSGLPQKVIWHWFRNTLFKERQ [K44W],-0.176 ± 0.1
16,RPRTRITDDQLRVLRQYFDINNSPSEEQIKEMADKSGLPQYVIKHWFRNTLFKERQ [K41Y],-0.389 ± 0.21
17,RPRTRITDDQLRVLRQYFDINRSPSEEQIKEMADKSGLPQKVIKHWFRNTLFKERQ [N22R],0.116 ± 0.069
18,RPRTRITDDQLRVLRQYFDINNSPSEEQIKEMWDKSGLPQKVIKHWFRNTLFKERQ [A33W],-0.556 ± 0.16
19,RPRTRITDDQLRVLRQYFDINNSPSEEQIKENADKSGLPQKVIKHWFRNTLFKERQ [M32N],-1.08 ± 0.29
20,RPRTRITDDQLRVLRQYFDINNSPSPEQIKEMADKSGLPQKVIKHWFRNTLFKERQ [E26P],0.031 ± 0.09
21,RPRTRITDDQLRVLRQYFDINNSPSEEQIKEMADKSGLPQKVIKHWFRNTLFKEWQ [R55W],-0.396 ± 0.099
22,RPRTRYTDDQLRVLRQYFDINNSPSEEQIKEMADKSGLPQKVIKHWFRNTLFKERQ [I6Y],-0.123 ± 0.11
23,RPRTRITDDQLRVLRQYFDINNSPSEEQIKEMADKSGLPQKVIKHWFRNQLFKERQ [T50Q],-0.16 ± 0.19
